Assay [1] concerns the target human LAG-3 protein (Lymphocyte activation gene-3) on the cell surface (human) (UniProt P18627). As to the kind of experiment: flow cytometry on CHO-LAG-3+ cells; antibody 0 ng/ml (no-antibody background).
Assay [2] shares this target. Briefly: flow cytometry on CHO-LAG-3+ cells; antibody 20 ng/ml.
The target is the same in assay [3]. As to the kind of experiment: flow cytometry on CHO-LAG-3+ cells; antibody 6000 ng/ml.
For assay [4] the target is unchanged. As to the kind of experiment: flow cytometry on CHO-LAG-3+ cells; antibody 605 ng/ml.
Assay [5] has the same target. As to the kind of experiment: flow cytometry on CHO-LAG-3+ cells; antibody 1905 ng/ml.
The target is the same in assay [6]. Briefly: flow cytometry on CHO-LAG-3+ cells; antibody 6 ng/ml.
The target is the same in assay [7]. Briefly: flow cytometry on CHO-LAG-3+ cells; antibody 61 ng/ml.
For assay [8] the target is unchanged. As to the kind of experiment: flow cytometry on CHO-LAG-3+ cells; antibody 192 ng/ml.
The target in assay [9] is T1, human LAG-3 protein (Lymphocyte activation gene-3) on the cell surface (human, UniProt P18627 23-525).
T1 construct: also called CD223; CHO LAG-3+
T1 sequence: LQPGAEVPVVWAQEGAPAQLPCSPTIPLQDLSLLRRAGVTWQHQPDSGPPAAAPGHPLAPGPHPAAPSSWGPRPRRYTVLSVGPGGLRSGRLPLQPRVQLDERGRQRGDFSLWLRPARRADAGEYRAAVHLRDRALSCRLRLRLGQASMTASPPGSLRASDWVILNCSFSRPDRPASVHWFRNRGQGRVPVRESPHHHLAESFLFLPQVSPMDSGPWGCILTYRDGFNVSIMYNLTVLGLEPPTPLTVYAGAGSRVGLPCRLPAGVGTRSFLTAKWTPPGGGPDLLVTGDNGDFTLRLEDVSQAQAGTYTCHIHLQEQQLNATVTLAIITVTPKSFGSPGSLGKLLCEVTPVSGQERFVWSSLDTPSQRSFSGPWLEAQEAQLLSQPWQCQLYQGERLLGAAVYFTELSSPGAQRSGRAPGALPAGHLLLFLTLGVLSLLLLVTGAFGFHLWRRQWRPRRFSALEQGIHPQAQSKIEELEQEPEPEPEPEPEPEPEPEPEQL
Briefly: flow cytometry on LAG-3-expressing CHO cells, four independent experiments; reference 17B4. As for the experimental part:
(§1) LAG-3⁺-transfected CHO cells, or SEB-stimulated PBMCs from a healthy donor were incubated with anti-LAG-3 monoclonal antibody, or an isotype control (mIgG1) for 30 minutes in PBS, BSA 0.5%, Azide 0.1% at 4° C. […] The secondary antibody was washed away, and the CHO cells were directly analyzed by flow cytometry. The PBMCs were phenotyped using CD4-PE-Cy7 and CD8-APC-Cy7.

The target of assay [10] is T1, human LAG-3 protein (Lymphocyte …). Briefly: flow cytometry on CD4+ cells of SEB-stimulated PBMCs (Donor 1), from Table 13. The method, then:
as §1

Assay [11] has the same target. As to the kind of experiment: flow cytometry on CD8+ cells of SEB-stimulated PBMCs (Donor 1), from Table 13. As for the experimental part:
as §1

The target is the same in assay [12]. Briefly: flow cytometry on CD4+ cells of SEB-stimulated PBMCs, mean of three donors. As for the experimental part:
as §1

For assay [13] the target is unchanged. Briefly: flow cytometry on CD4+ cells of SEB-stimulated PBMCs, three donors; reference 17B4. The method, then:
as §1

Assay [14] has the same target. As to the kind of experiment: flow cytometry on CD8+ cells of SEB-stimulated PBMCs, mean of three donors. As for the experimental part: as §1
Assay [15] shares this target. As to the kind of experiment: flow cytometry on CD8+ cells of SEB-stimulated PBMCs, three donors; reference 17B4. As for the experimental part:
as §1

Turning to “human IgG4 (isotype-matched negative control) (antibody)”, the MFI FITC in [1] is 35 MFI; in assay [2], 49 MFI; in assay [3], 71 MFI; in [4], 46 MFI; in assay [5], 77 MFI; in [6] it was 37 MFI. Also, the MFI FITC in [7] came out at 69 MFI; in assay [8] it was 59 MFI.

B1: mouse monoclonal anti-LAG-3 antibody 13E2 (antibody, V domains shown)
VH: QVTLKESGPGILQPSQTLSLTCSFSGFSLSTSGMGLGWIRQPSGKGLEWLTHIWWDDIKRYNPDLRSRLTISKDTSSSQIFLKIASVDTADTATYYCARIVEGSYSSSYFDVWGAGTTVTVSS
VL: DIVMTQPHKFMSTSVEDRVTITCKASQDVIFDVAWYQQKPGQSPKLLIYSASSRVSGVPDRFTGSGSGTDFTFTISSVQAEDLAVYYCQQHYSTPYTFGGGTTLEIK
notes: Whole mouse monoclonal antibody from a hybridoma; mIgG1 was used as its isotype control
In the case of B1, the “ratio of mean EC50 against 17B4” value is 2.7 times in [9], 3.8 times in assay [13] and 2.5 times in [15]. The EC50 in assay [10] was 0.1 nM; in assay [11] it was 0.3 nM; in assay [12] it was 0.2 nM; in assay [14] it was 0.4 nM.

Source of the values: patent US20190153112A1 (IMMUTEP S A S, published 2019).
